According to US20240150440A1 (LUMEN BIOSCIENCE, published 2024):

B1: PP1108 MBP-5HVZ-PAPA-RN-23-H6 (VHH)
VHH: QVQLVESGGGLVQPGGSLRLSCAASGGEKSISAAHWYRQAPGKEREFVAAITAASTTSYADSVKGRFTISRDNAKNTVYLQMNSLKPEDTAVYYCTAVLYDSYDYWGQGTQVTVSS
notes: Form: Dimer
B2: PP1114 MBP-5HVZ-PAPA-RN-30-H6 (VHH)
VHH: QVQLVESGGGLVQPGGSLRLSCAASGIPASYLNMHWFRQAPGKQREWVAGAGGTNSNYYQDSVKGRFTISRDNAKNTVYLQMNSLKPEDTAVYYCAALDGAESYDYVYPVWGQGTQVTVSS
notes: Form: Dimer
B3: PP1115 MBP-5HVZ-PAPA-RN-31-H6 (VHH)
VHH: QVQLVESGGGLVQPGGSLRLSCAASGSTGSDYAMHWFRQAPGKDREWVAGISSYGSDSYGDSVKGRFTISRDNAKNTVYLQMNSLKPEDTAVYYCAALQASAGAGYYYDYWGQGTQVTVSS
notes: Form: Dimer
B4: PP884 MBP-R1i-A11-H6 (VHH)
VHH: QVQLVESGGGLVQPGGSLRLSCAASGSILQINAIHWFRQAPGKQREEVAAITSGGSTGYADSVKGRFTISRDNAKNTVYLQMNSLKPEDTAVYYCAATSTRGGLDSDYWGQGTQVTVSS
notes: Form: Monomer
B5: PP1141 MBP-4B0F-PAPA-R5d-D4-H6 (VHH)
VHH: QVQLVESGGGLVQPGGSLRLSCAASGSDFTINAMHWFRQAPGKQREFVATITSTSSTAYRDSVKGRFTISRDNAKNTVYLQMNSLKPEDTAVYYCAAFAVRDADTAGWTARDYWGQGTQVTVSS
notes: Form: Heptamer
B6: PP1177 MPB-scTRP-PAPA-R2a-F3-H6 (VHH)
VHH: QVQLVESGGGLVQPGGSLRLSCAASGSITSINWMHWFRQAPGKDREGVASISQTGRGSYADSVKGRFTISRDNAKNTVYLQMNSLKPEDTAVYYCAAASRTGTPYNYWGQGTQVTVSS
notes: Form: Trimer
B7: PP823 MBP-R5B-C3-H6 (VHH)
VHH: QVQLVESGGGLVQPGGSLRLSCAASGGISVANVMHWFRQAPGKEREGVAGLTSEGSRYYADSVKGRFTISRDNAKNTVYLQMNSLKPEDTAVYYCAAEPTGNTHEFEYWGQGTQVTVSS
B8: PP880 MBP-R5a-B5-H6 (VHH)
VHH: QVQLVESGGGLVQPGGSLRLSCAASGDDFIENAISWYRQAPGKGREWVAAVTLGGHSNYADSVKGRFTISRDNAKNTVYLQMNSLKPEDTAVYYCNYPVGIPAVAIDGRRSYGYWGQGTQVTVSS
notes: Form: Monomer
B9: PP881 MBP-R5a-F2-H6 (VHH)
VHH: QVQLVESGGGLVQPGGSLRLSCAASGSISSIEAMSWFRQAPGKQREGVATMASGGDTSYADSVKGRFTISRDNAKNTVYLQMNSLKPEDTAVYYCAAQTYRPDTWGRYTFWGQGTQVTVSS
notes: Form: Monomer
B10: PP883 MBP-R1e-D4-H6 (VHH)
VHH: QVQLVESGGGLVQPGGSLRLSCAASGSIREINAMHWVRQAPGKGRELVASIDSGSLDYYADSVKGRFTISRDNAKNTVYLQMNSLKPEDTAVYYCAASRSGDYRYWGQGTQVTVSS
notes: Form: Monomer
B11: PP885 MBP-R5b-C5-H6 (VHH)
VHH: QVQLVESGGGLVQPGGSLRLSCAASGSPFKTQTVHWFRQAPGKGREWVASITSGSGTQYMDSVKGRFTISRDNAKNTVYLQMNSLKPEDTAVYYCAAANDGYGVDWGQGTQVTVSS
notes: Form: Monomer
B12: PP886 MBP-S1a-C4-H6 (VHH)
VHH: QVQLVESGGGLVQPGGSLRLSCAASGSRDSINTAHWYRQAPGKAREWVASLDNSTTGSYADSVKGRFTISRDNAKNTVYLQMNSLKPEDTAVYYCAAVTGTPGGLGFYDYWGQGTQVTVSS
B13: PP887 MBP-S1b-E7-H6 (VHH)
VHH: QVQLVESGGGLVQPGGSLRLSCAASGGEFSDNGLHWFRQAPGKQREFVATASSDGSTQYRDSVKGRFTISRDNAKNTVYLQMNSLKPEDTAVYYCTALLMSSAGEYDVWGQGTQVTVSS
notes: Form: Monomer
B14: PP888 MBP-S1b-E11-H6 (VHH)
VHH: QVQLVESGGGLVQPGGSLRLSCAASGSYASIASMHWFRQAPGKEREFVAGVTSGGSTNYGDSVKGRFTISRDNAKNTVYLQMNSLKPEDTAVYYCNALAGANYESQWEEYNYWGQGTQVTVSS
notes: Form: Monomer
B15: PP907 MBP-5HVZ-S1b-E11-H6 (VHH)
VHH: QVQLVESGGGLVQPGGSLRLSCAASGSYASIASMHWFRQAPGKEREFVAGVTSGGSTNYGDSVKGRFTISRDNAKNTVYLQMNSLKPEDTAVYYCNALAGANYESQWEEYNYWGQGTQVTVSS
notes: Form: Dimer
B16: PP806 MBP-R2B-E6-H6 (VHH)
VHH: QVQLVESGGGLVQPGGSLRLSCAASGGVTRGNAMAWYRQAPGKQREIVAAIDNGGSHAYGDSVKGRFTISRDNAKNTVYLQMNSLKPEDTAVYYCAVFPDHDSEQASIDRVYWGQGTQVTVSS
notes: Form: Monomer
B17: PP922 MBP-R5a-F5-H6 (VHH)
VHH: QVQLVESGGGLVQPGGSLRLSCAASGYHASILAMHWVRQAPGKEREWVASMTWSDMTQYSDSVKGRFTISRDNAKNTVYLQMNSLKPEDTAVYYCAATYVTRDRPWTHWGQGTQVTVSS
notes: Form: Monomer
B18: PP901 MBP-5HVZ-R1e-B2-H6 (VHH)
VHH: QVQLVESGGGLVQPGGSLRLSCAASGQITAENYMHWYRQAPGKQREWVAAITTGGSTLYADSVKGRFTISRDNAKNTVYLQMNSLKPEDTAVYYCNADRSYFPDYWGQGTQVTVSS
notes: Form: Dimer
B19: PP902 MBP-5HVZ-R1e-D4-H6 (VHH)
VHH: QVQLVESGGGLVQPGGSLRLSCAASGSIREINAMHWVRQAPGKGRELVASIDSGSLDYYADSVKGRFTISRDNAKNTVYLQMNSLKPEDTAVYYCAASRSGDYRYWGQGTQVTVSS
notes: Form: Dimer
B20: PP905 MBP-5HVZ-S1a-C4-H6 (VHH)
VHH: QVQLVESGGGLVQPGGSLRLSCAASGSRDSINTAHWYRQAPGKAREWVASLDNSTTGSYADSVKGRFTISRDNAKNTVYLQMNSLKPEDTAVYYCAAVTGTPGGLGFYDYWGQGTQVTVSS
notes: Form: Dimer
B21: PP910 MBP-5HVZ-S2b-C10-H6 (VHH)
VHH: QVQLVESGGGLVQPGGSLRLSCAASGSAFSLNYMAWFRQAPGKQREGVAIIGSGGSSDYADSVKGRFTISRDNAKNTVYLQMNSLKPEDTAVYYCAAQPNGSPDDFDYWGQGTQVTVSS
notes: Form: Dimer
B22: PP911 MBP-5HVZ-S2b-F7-H6 (VHH)
VHH: QVQLVESGGGLVQPGGSLRLSCAASGSTLSNNAMHWFRQAPGKAREFVAAIGSSDSTDYKDSVKGRFTISRDNAKNTVYLQMNSLKPEDTAVYYCTALLDSGPGEYNYWGQGTQVTVSS
notes: Form: Dimer
B23: PP928 MBP-5HVZ-R1i-E7-H6 (VHH)
VHH: QVQLVESGGGLVQPGGSLRLSCAASGTEYDISAAHWYRQAPGKQREWVAGVTSDNSTFYADSVKGRFTISRDNAKNTVYLQMNSLKPEDTAVYYCTATVKTSQYRYWGQGTQVTVSS
B24: PP1096 MBP-5HVZ-PAPA-RN-3-H6 (VHH)
VHH: QVQLVESGGGLVQPGGSLRLSCAASGFEFTYRAVHWFRQAPGKGREWVAGVVSGGSTYYADSVKGRFTISRDNAKNTVYLQMNSLKPEDTAVYYCNAGPQAEEDTYDYWGQGTQVTVSS
B25: PP788 (VHH, not shown: large carriers; small tags and cut ends)
VHH: QVQLVESGGGLVQPGGSLRLSCAASGSIESINAIHWFRQAPGKAREEVAAITENDVDYYADSVKGRFTISRDNAKNTVYLQMNSLKPEDTAVYYCASLSSGYQYVGFRYWGQGTQVTVSS
B26: PP904 MBP-5HVZ-R5b-C5-H6 (VHH)
VHH: QVQLVESGGGLVQPGGSLRLSCAASGSPFKTQTVHWFRQAPGKGREWVASITSGSGTQYMDSVKGRFTISRDNAKNTVYLQMNSLKPEDTAVYYCAAANDGYGVDWGQGTQVTVSS
notes: Form: Dimer
B27: PP913 MBP-5HVZ-S3a-C5-H6 (VHH)
VHH: QVQLVESGGGLVQPGGSLRLSCAASGSIKNTNAMHWFRQAPGKDREWVAGITSGGNSNYGDSVKGRFTISRDNAKNTVYLQMNSLKPEDTAVYYCAAFGYRYDQDYTYDYWGQGTQVTVSS
notes: Form: Dimer
B28: PP914 MBP-5HVZ-S3a-H1-H6 (VHH)
VHH: QVQLVESGGGLVQPGGSLRLSCAASGGIYSPYSMHWFRQAPGKAREWVAGIVGGGGTTYSDSVKGRFTISRDNAKNTVYLQMNSLKPEDTAVYYCNANYQEYDEYDYWGQGTQVTVSS
notes: Form: Dimer
B29: PP916 MBP-5HVZ-S3b-A8-H6 (VHH)
VHH: QVQLVESGGGLVQPGGSLRLSCAASGSIISRVKVHWFRQAPGKSREWVAGIDSGTASYYSDSVKGRFTISRDNAKNTVYLQMNSLKPEDTAVYYCAAENRGYGVDWGQGTQVTVSS
notes: Form: Dimer

How the values were obtained:
[1] = target: SARS-CoV-2 spike protein on pseudotyped lentivirus (Wuhan Reference Pseudovirus) (SARS-CoV-2, UniProt P0DTC2 14-1273); experiment: cell-based or functional assay
[2] = target: T1, SARS-CoV-2 Gamma Variant RBD (SARS-CoV-2 Gamma variant); experiment: ELISA, RBD coated
T1 construct: domain: RBD; coated on ELISA plates

[3] = target: T2, SARS-CoV-2 Beta Variant RBD (SARS-CoV-2 Beta variant); experiment: ELISA, RBD coated
T2 construct: domain: RBD; coated on ELISA plates

[4] = target: T3, SARS-CoV-2 Alpha Variant RBD (SARS-CoV-2 Alpha variant); experiment: ELISA, RBD coated
T3 construct: domain: RBD; coated on ELISA plates

Binder | infectivity % under 10 ug/mL VHH treatment [1] | EC50 [2] | EC50 [3] | EC50 [4]
B1 | 93.1% | 57.1 nM | 121 nM | 1.89 nM
B2 | 76.3% | 6.12 nM | 18.9 nM | 1.64 nM
B3 | 86.9% | 162 nM | 857 nM | 6.74 nM
B4 | 91.3% |  |  | 
B5 | 73.1% |  |  | 
B6 | 51.1% |  |  | 
B7 | 65.5% |  |  | 
B8 | 58% |  |  | 
B9 | 83.2% |  |  | 
B10 | 94.3% |  |  | 
B11 | 101% |  |  | 
B12 | 84.8% |  |  | 
B13 | 85.7% |  |  | 
B14 | 80% |  |  | 
B15 | 76.3% | 120 nM | 263 nM | 3.7 nM
B16 | 86.5% |  |  | 
B17 | 67.7% |  |  | 
B18 | 72.1% |  |  | 
B19 | 72.4% | 451 nM |  | 123 nM
B20 | 75.7% |  |  | 447 nM
B21 | 65.1% |  |  | 
B22 | 74.9% | 317 nM | 545 nM | 2.19 nM
B23 | 78.5% |  |  | 
B24 | 86.5% | 28.4 nM | 63.2 nM | 1.92 nM
B25 |  | 16.8 nM | 27.6 nM | 5.88 nM
B26 |  | 34.6 nM | 139 nM | 13 nM
B27 |  | 61.1 nM | 114 nM | 1.33 nM
B28 |  | 10.5 nM | 19.4 nM | 2.94 nM
B29 |  | 42.9 nM | 66.3 nM | 2.04 nM
